Experiment [1] deals with T1, amyloid plaques in human AD brain tissue (human, UniProt P05067 674-713).
T1 construct: Target presented in tissue sections; also called plaques in AD brain tissue
Nature of the experiment: immunostaining of unfixed human AD cortex sections, % area covered, 6 donors fitted together.

Experiment [2] has as its target T1, amyloid plaques in human AD brain tissue. Nature of the experiment: immunostaining of unfixed human AD cortex sections with biotinylated antibody, % area covered, 6 donors fitted together.
Description: Unfixed, 20 μm tissue sections were prepared from cerebral cortex of human cadaver AD brain using a cryostat and were thaw-mounted onto glass slides. The tissue sections were then incubated in Tris-buffered saline (TBS) containing 0.3% H₂O₂ for 10 minutes. After three washes with TBS, the sections were incubated in TBS containing 3% milk for 30 minutes. […] After three washes with TBS, the immunoreactivity was visualized by incubation in 1:400 ABC Elite for one hour followed by DAB for five minutes.
The images were acquired from all the samples using a slide scanner. […] Using the software, the gray matter was outlined, and the “threshold” was determined by an observer who was blind to the staining conditions. The threshold was set so that the DAB signal was recognized by the software and the background/non-specific staining was excluded from the analysis. Once an appropriate threshold was set, the software measured the percentage of the area of interest containing the positive signal.
A nonlinear regression analysis was carried out using Prism Version 9.1.0 (Graph Pad Software). A variable slope model, 9% area covered by IR=Bottom+(X^{HillSlope})*(Top−Bottom)/(X^{HillSlope}+EC₅₀^{HillSlope}), was used, where Bottom was fixed to zero, and Top was fixed to 10% as the typical total area covered by plaques. Data for all six donors were analyzed in a combined data fit.
The target in experiment [3] is human Aβ 1-40 fibrils (human). Briefly: direct binding ELISA.
The target in experiment [4] is T2, Mouse/Rat Aβ 1-40 (mouse/rat).
T2 construct: also called Aβ1-40 from rat and mouse
T2 peptide: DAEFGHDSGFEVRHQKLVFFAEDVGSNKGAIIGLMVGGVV
Briefly: direct binding ELISA.

Experiment [5] has as its target T3, pEF10 Pyr …-Biotin (human).
T3 peptide: [pGlu]FRHDSGGEVHHQK-{Biotin′}
Briefly: direct binding ELISA, peptide coated 100 ng/well, average ± SD of three experiments. The procedure: (§1) Recombinant human Aβ biotinylated peptides were diluted in distilled water. Aβ peptides were diluted to a working concentration of 2 μg/mL, and 50 μL per well (100 ng/well) was added to 96-well half area high-binding ELISA plates. The plates were incubated overnight at 4° C. shaking at 100 rpm. Following coating, the plates were washed four times with 190 µL/well of 1×PBS using an automated plate washer. The plates were blocked with 190 µL/well of 2% BSA in DPBS and incubated for 1 hr. at RT. Reagents for ELISA were diluted in 0.25% BSA in DPBS.
(§2) After incubation for blocking, plates were washed four times with 190 μL/well of 1×PBS using automated plate washer. […] The plates were incubated for 30 min at RT. After four washes with PBS, 50 μL of TMB substrate was added into each well, and the plates were incubated at RT for about 5-10 min until color developed. The reaction was stopped by adding 50 μL per well of 2N sulfuric acid. Plates were read on a ClarioStar plate reader to obtain the absorbance at 450 nm (OD₄₅₀). […] Three independent experiments were performed.

Experiment [6] concerns the target T4, pE3-16 Pyr-…-Biotin (human).
T4 peptide: [pGlu]FRHDSGYEVHHQK-{Biotin′}
The experiment is described as above. The procedure:
as §1, §2

Experiment [7] concerns the target T5, E3-16-EFRHDSGYEVHHQK-Biotin (human).
T5 construct: N-terminal glutamate is not pyroglutamated
T5 peptide: EFRHDSGYEVHHQK-{Biotin′}
Described as above. The procedure:
as §1, §2

In experiment [8] the target is T6, pEG8 Pyr …-Biotin (human).
T6 peptide: [pGlu]FRHDGGYEVHHQK-{Biotin′}
Described as above. The procedure: as §1, §2

Experiment [9] has as its target T7, pEG7 Pyr …-Biotin (human).
T7 peptide: [pGlu]FRHGSGYEVHHQK-{Biotin′}
The description is as above. The procedure:
as §1, §2

Experiment [10] deals with T8, pEG6 Pyr …-Biotin (human).
T8 peptide: [pGlu]FRGDSGYEVHHQK-{Biotin′}
The description is as above. The procedure: as §1, §2

Square brackets hold non-standard residues; d marks the D form. Primed or numbered codes have the meaning given here. Ends that are not written are not given here. pGlu = O=C1CC[C@@H](C(=O)O)N1; Biotin′ = not defined here

T1 sequence (P05067 674-713): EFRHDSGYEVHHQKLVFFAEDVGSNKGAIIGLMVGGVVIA

B1: Comparator Ab1 (antibody, human IgG1, kappa, V domains shown)
VH: QVQLVQSGAEVKKPGSSVKVSCKASGYDFTRYYINWVRQAPGQGLEWMGWINPGSGNTKYNEKFKGRVTITADESTSTAYMELSSLRSEDTAVYYCAREGITVYWGQGTTVTVSS
VL: DIVMTQTPLSLSVTPGQPASISCKSSQSLLYSRGKTYLNWLLQKPGQSPQLLIYAVSKLDSGVPDRFSGSGSGTDFTLKISRVEAEDVGVYYCVQGTHYPFTFGQGTKLEIKR
notes: Detected with anti-human IgG in the in vivo study; also called comparator antibody Ab1
The molecule B1 had an EC50 in [1] of 12 µg/mL.

B2: AC-264713, hu Aβ (AC-264713) [hu IgG1/K] (antibody, V domains shown)
VH: EVQLQESGPGLVKPSQTLSLTCTFSGFSLSTSGMGVSWIRQPPGKGLEWLAHIYWDDDKRYNPYMKRRLTISKDTSKNQVSLKISSVTAADTAVYYCARRADDYDVGFAYWGQGTLVTVSS
VL: DIQMTQSPSSVSASVGDRVTITCLASQTIGTWLAWYQQKPGKSPKLLIYAATSLADGVPSRFSGSGSGTDFTLTISSLQPEDFATYYCQQLYSSPFTFGQGTKLEIKR
notes: It is the only humanized antibody described
For B2, the concentration giving a half-maximal response (EC50) worked out at 0.4 µg/mL in experiment [2]; 0.5 nM in experiment [5]; 0.3 nM in [6]; 0.9 nM in [7]; 0.4 nM in [8]; 0.4 nM in [9]. The molecule further showed an EC50 in [10] of 0.5 nM. Besides, the binding result in experiment [3] and in experiment [4] was “no binding” in each case.

(Values after US20250101087A1 (AbbVie / Abbott, published 2025).)
